In publication PMC5394236:

Target: GST fused recombinant Pparγ LBD protein (UniProt P37231)
Assay: co-immunoprecipitation (IP: Flag) with immunoblot band intensity quantification
Details: lysates of HEK293 cells transfected with Flag-Lrp1β-Wt or Mut mixed with GST fused recombinant Pparγ LBD protein; n=3; parent: est. 100; read off a plot

Sequence of UniProt P37231 (P37231 whole entry, the tested form may be a part): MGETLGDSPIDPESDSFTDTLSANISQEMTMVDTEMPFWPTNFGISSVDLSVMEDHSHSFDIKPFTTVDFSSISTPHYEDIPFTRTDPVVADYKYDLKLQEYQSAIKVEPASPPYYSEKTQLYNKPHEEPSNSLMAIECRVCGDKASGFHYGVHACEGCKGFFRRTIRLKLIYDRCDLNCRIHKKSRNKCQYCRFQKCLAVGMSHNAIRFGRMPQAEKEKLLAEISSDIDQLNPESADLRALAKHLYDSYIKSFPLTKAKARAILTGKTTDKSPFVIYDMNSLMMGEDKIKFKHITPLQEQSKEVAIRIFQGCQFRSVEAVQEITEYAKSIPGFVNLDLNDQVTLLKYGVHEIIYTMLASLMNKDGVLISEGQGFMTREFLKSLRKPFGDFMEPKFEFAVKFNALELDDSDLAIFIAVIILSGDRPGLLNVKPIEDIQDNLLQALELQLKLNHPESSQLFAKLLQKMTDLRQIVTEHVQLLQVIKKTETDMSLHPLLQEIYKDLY

percent of parent: 13%
Substance: Flag-Lrp1β-Wt (VGGLL) L4487A; L4488A
